Assays:
[1] = target: complement Factor D (fD) (Homo sapiens) (UniProt P00746); test: flow; settings: 2'-F G, 2'-OMe A,C,U, 37 C
[2] = target: complement Factor D (fD) (Homo sapiens) (UniProt P00746); test: inhibition; settings: control oligo
[3] = target: complement Factor D (fD) in C1q-depleted human serum (Homo sapiens) (UniProt P00746); test: inhibition; settings: hemolysis; non-specific control oligo
[4] = SB1T, 100 nM AFD Fab reduces signal about 75-90%

complement Factor D (fD) (Homo sapiens), sequence (P00746 26-253): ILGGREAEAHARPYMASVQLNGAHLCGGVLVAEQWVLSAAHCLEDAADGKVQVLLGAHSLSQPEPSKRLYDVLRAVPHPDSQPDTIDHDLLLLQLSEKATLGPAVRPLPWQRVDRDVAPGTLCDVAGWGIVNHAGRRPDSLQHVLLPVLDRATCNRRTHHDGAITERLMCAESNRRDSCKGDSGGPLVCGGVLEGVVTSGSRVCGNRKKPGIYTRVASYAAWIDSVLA
complement Factor D (fD) in C1q-depleted human serum (Homo sapiens), sequence (P00746 26-253): as above

## GGGAGUGUGUACGAGGCAUUAGGCCGCCNNNNNNNNNNNNNNNNNNNNNNNNNNNNNNGGCGGCUUUGAUACUUGAUCGCCCUAGAAGC [N30S library round 6]
[1]; SB1T with BSA and ssDNA, bead-immobilized fD
  Kd: 34.4 nM

## C8 non-specific control oligo
[2]
  activity (% esterase activity): 105
[3]
  IC50: > 160 nM

## GGGAGUGUGUACGAGGCAUUAGGCCGCCNNNNNNNNNNNNNNNNNNNNNNNNNNNNNNGGCGGCUUUGAUACUUGAUCGCCCUAGAAGC [N30S library round 8]
[1]; [4]
  Kd: 8.8 nM

## GGGAGUGUGUACGAGGCAUUAGGCCGCCNNNNNNNNNNNNNNNNNNNNNNNNNNNNNNGGCGGCUUUGAUACUUGAUCGCCCUAGAAGC [N30S library round 7]
[1]; [4]
  Kd: 45.1 nM

Reference: US20190032056
